Experiments:
[1] = target: VWF in human whole blood of healthy volunteers (human) (UniProt P04275); assay: cell-based or functional assay
[2] = target: reference Nanobody (in accordance with WO 04/062551); assay: competition ELISA: soluble ristocetin-preincubated wt-VWF at equal molar concentration against 62.5 nM biotinylated reference Nanobody on immobilized VWF

“GpIbα on platelets (from UniProt P07359 17-652) (receptor)” showed a platelet coverage [1] of 67.8%.

For “wt-VWF preincubated with 1 mg/ml ristocetin (ristocetin-activated VWF) (from UniProt P04275 764-2813)”, the percent reduction of binding [2] was 90%.
